Here are results for four substances from paper PMC2680354.

Assay [1] deals with rapamycin-mediated complex of FKBP-WASP VCA-His6 and mTOR-WASP VCA-FLAG. As to the kind of experiment: pull-down.
In assay [2] the target is N-WASPC (autoinhibited C-terminal fragment of N-WASP) (UniProt O08816). Put plainly: ITC. Background: Isothermal titration calorimetry measures the heat released or taken up as one component is titrated into another.
For assay [3] the target is unchanged.
Assay [4] addresses glutathione S-transferase (GST).

Bounds are passed on as bounds.

Sequence of N-WASPC (autoinhibited C-terminal fragment of N-WASP) (O08816 whole entry, the tested form may be a part): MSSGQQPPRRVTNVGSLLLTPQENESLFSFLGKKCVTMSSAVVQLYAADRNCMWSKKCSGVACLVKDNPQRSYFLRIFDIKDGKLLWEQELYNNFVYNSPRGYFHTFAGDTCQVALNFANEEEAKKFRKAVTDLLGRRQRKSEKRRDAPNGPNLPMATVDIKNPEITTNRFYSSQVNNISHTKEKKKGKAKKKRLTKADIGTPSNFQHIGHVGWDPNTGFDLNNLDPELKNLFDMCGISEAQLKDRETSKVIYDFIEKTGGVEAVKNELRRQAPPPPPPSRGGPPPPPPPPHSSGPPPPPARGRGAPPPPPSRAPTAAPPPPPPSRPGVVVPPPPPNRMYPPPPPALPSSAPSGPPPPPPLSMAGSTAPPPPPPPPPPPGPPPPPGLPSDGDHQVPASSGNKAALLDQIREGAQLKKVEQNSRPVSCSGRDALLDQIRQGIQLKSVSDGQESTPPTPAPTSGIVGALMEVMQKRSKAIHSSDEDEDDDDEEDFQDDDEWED
Sequence of EspFu 2RC (identical repeats four and five) (P0DJ88 whole entry, the tested form may be a part): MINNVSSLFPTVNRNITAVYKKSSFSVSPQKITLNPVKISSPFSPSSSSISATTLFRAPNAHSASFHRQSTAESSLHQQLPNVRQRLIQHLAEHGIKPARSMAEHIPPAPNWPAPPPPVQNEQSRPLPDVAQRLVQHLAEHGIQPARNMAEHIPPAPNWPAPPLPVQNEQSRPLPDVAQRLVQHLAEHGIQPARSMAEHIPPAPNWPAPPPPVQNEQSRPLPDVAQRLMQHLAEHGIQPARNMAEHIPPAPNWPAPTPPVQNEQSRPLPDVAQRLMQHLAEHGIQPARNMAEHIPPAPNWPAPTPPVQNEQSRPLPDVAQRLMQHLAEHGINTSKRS
Sequence of EspFu 1R (a single repeat of EspFu, the fourth repeat) (P0DJ88 whole entry, the tested form may be a part): as above
Sequence of glutathione S-transferase (GST) (natural protein) (P08515 2-218): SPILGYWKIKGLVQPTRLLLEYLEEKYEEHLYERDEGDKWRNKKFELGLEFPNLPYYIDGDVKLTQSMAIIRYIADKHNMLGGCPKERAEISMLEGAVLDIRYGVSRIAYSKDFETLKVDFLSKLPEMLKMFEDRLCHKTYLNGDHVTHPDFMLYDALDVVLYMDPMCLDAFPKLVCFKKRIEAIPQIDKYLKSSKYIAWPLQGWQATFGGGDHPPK

As for “Arp2/3 complex, endogenous in HEK293 cells (from UniProt P61158 1-418)”, the fold increase in precipitated Arp2/3 with rapamycin over no rapamycin in assay [1] is above 3 fold.
In general, Kd refers to the free concentration of one partner at which half of the binding sites on the other are occupied at equilibrium, for simple one-to-one binding. “EspFu 1R (a single repeat of EspFu, the fourth repeat) (from UniProt P0DJ88 1-337) (domain or fragment)” displayed a Kd in assay [2] of 35 nM.
“EspFu 2RC (identical repeats four and five) (from UniProt P0DJ88 1-337) (domain or fragment)”: in assay [2], the Kd was determined as 39 nM. The substance also registered a fold tighter affinity than 2R in assay [3] of 3 fold.
The substance “glutathione S-transferase (GST) (natural protein)” registered a Kd in assay [4] below 1 nM.
